From patent US20250025505A1 (BIONTECH, published 2025)

Legend:
Assay in all cases: recognition by CLDN6 CAR-T cells, non-clinical study; assay not described
CLDN4 = biological target: T1, CLDN4 (UniProt O14493 1-209, limits assumed)
T1 construct: also called claudin 4
T1 sequence (looked up): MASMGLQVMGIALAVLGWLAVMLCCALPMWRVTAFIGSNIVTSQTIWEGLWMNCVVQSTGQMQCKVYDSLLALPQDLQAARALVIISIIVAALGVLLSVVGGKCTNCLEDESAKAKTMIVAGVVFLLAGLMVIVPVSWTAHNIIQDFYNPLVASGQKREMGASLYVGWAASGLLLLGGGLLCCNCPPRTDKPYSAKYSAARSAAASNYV

CLDN3 = biological target: T2, CLDN3 (UniProt O15551 1-220, limits assumed)
T2 construct: also called claudin 3
T2 sequence (looked up): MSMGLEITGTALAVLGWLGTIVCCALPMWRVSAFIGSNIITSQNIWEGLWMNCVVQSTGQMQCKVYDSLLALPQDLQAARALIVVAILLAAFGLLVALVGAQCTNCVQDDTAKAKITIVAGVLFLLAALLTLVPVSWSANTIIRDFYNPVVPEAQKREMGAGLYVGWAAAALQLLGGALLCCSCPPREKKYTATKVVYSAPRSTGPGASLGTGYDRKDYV

CLDN9 = biological target: T3, CLDN9 (UniProt O95484 1-217, limits assumed)
T3 construct: also called claudin 9
T3 sequence (looked up): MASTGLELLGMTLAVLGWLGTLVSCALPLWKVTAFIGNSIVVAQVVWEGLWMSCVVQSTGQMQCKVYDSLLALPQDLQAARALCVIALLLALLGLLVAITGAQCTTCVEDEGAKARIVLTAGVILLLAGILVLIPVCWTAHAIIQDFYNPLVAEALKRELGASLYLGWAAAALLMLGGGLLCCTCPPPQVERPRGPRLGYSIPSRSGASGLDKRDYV

Measured: binding result

B1: CLDN6-CAR-CD8h-BBz (other)
chain: EVQLQQSGPELVKPGASMKISCKASGYSFTGYTMNWVKQSHGKNLEWIGLINPYNGGTIYNQKFKGKATLTVDKSSSTAYMELLSLTSEDSAVYYCARDYGFVLDYWGQGTTLTVSSGGGGSGGGGSGGGGSDIVLTQSPSIMSVSPGEKVTITCSASSSVSYMHWFQQKPGTSPKLSIYSTSNLASGVPARFSGRGSGTSYSLTISRVAAEDAATYYCQQRSNYPPWTFGGGTKLEIKRSDPATTTPAPRPPTPAPTIASQPLSLRPEACRPAAGGAVHTRGLDFACDIYIWAPLAGTCGVLLLSLVITLYCKRGRKKLLYIFKQPFMRPVQTTQEEDGCSCRFPEEEEGGCELRVKFSRSADAPAYKQGQNQLYNELNLGRREEYDVLDKRRGRDPEMGGKPRRKNPQEGLYNELQKDKMAEAYSEIGMKGERRRGKGHDGLYQGLSTATKDTYDALHMQALPPR
notes: Chimeric antigen receptor, tested on the surface of retrovirally transduced human (or murine) T cells; also called CLDN6-CAR-BBz
no binding: all assays above
